# Data: the Immune Epitope Database (IEDB)
# Tests used:
# HLA-B*45:01 = assay: IEDB peptide-MHC binding, purified MHC/competitive/radioactivity; filed as Kd, often an IC50 or EC50 that approximates it; ≥ and ≤ were set here for values at or beyond the usual limits of such assays
# HLA-B*40:01 = assay: as above
# HLA-B*44:03 = assay: as above
# HLA-B*40:02 = assay: as above
# HLA-B*44:02 = assay: as above
# HLA-B*18:01 [1] = assay: as above
# HLA-B*53:01 = assay: as above
# HLA-B*35:01 = assay: as above
# HLA-B*51:01 [2] = assay: as above
# HLA-B*07:02 = assay: as above
# HLA-B*54:01 = assay: as above
# HLA-A*03:01 [3] = assay: IEDB peptide-MHC binding, purified MHC/competitive/fluorescence; filed as Kd, often an IC50 or EC50 that approximates it; ≥ and ≤ were set here for values at or beyond the usual limits of such assays
# HLA-A*11:01 = assay: IEDB peptide-MHC binding, purified MHC/competitive/fluorescence; ≥ and ≤ were set here for values at or beyond the usual limits of such assays
# HLA-A*02:01 = assay: as above
# HLA-B*15:01 = assay: IEDB peptide-MHC binding, purified MHC/competitive/fluorescence; filed as Kd, often an IC50 or EC50 that approximates it; ≥ and ≤ were set here for values at or beyond the usual limits of such assays
# HLA-A*03:01 [4] = assay: IEDB peptide-MHC binding, purified MHC/direct/fluorescence; filed as Kd, often an IC50 or EC50 that approximates it; ≥ and ≤ were set here for values at or beyond the usual limits of such assays; conditions: source organism: Choclo virus
# HLA-A*02:12 = assay: as above
# HLA-B*58:01 = assay: as above; conditions: source organism: Orthohantavirus andesense
# HLA-B*51:01 [5] = assay: IEDB peptide-MHC binding, purified MHC/competitive/fluorescence; filed as Kd, often an IC50 or EC50 that approximates it; ≥ and ≤ were set here for values at or beyond the usual limits of such assays; conditions: source organism: Choclo virus
# HLA-A*26:01 [6] = assay: as above; conditions: source organism: Choclo virus
# HLA-B*57:01 = assay: as above; conditions: source organism: Choclo virus
# HLA-B*15:17 = assay: as above; conditions: source organism: Choclo virus
# HLA-B*27:03 = assay: as above; conditions: source organism: Choclo virus
# HLA-B*46:01 = assay: as above; conditions: source organism: Choclo virus
# HLA-B*18:01 [7] = assay: as above; conditions: source organism: Choclo virus
# HLA-B*39:01 = assay: as above; conditions: source organism: Choclo virus
# HLA-A*02:03 = assay: IEDB peptide-MHC binding, purified MHC/direct/fluorescence; filed as Kd, often an IC50 or EC50 that approximates it; ≥ and ≤ were set here for values at or beyond the usual limits of such assays; conditions: source organism: Mycobacterium tuberculosis str. Haarlem
# HLA-A*69:01 = assay: as above; conditions: source organism: Mycobacterium tuberculosis
# HLA-A*02:11 = assay: as above
# HLA-A*24:02 [8] = assay: IEDB peptide-MHC binding, purified MHC/competitive/fluorescence; ≥ and ≤ were set here for values at or beyond the usual limits of such assays; conditions: source organism: Sudan ebolavirus
# HLA-A*29:02 = assay: IEDB peptide-MHC binding, purified MHC/competitive/radioactivity; filed as Kd, often an IC50 or EC50 that approximates it; ≥ and ≤ were set here for values at or beyond the usual limits of such assays; conditions: source organism: SARS coronavirus Tor2
# HLA-A*30:02 = assay: as above; conditions: source organism: SARS coronavirus Tor2
# HLA-A*26:01 [9] = assay: as above; conditions: source organism: SARS coronavirus Tor2
# HLA-A*24:02 [10] = assay: as above; conditions: source organism: SARS coronavirus Tor2
# HLA-A*23:01 = assay: as above; conditions: source organism: SARS coronavirus Tor2
# HLA-A*01:01 = assay: IEDB peptide-MHC binding, purified MHC/direct/fluorescence; filed as Kd, often an IC50 or EC50 that approximates it; ≥ and ≤ were set here for values at or beyond the usual limits of such assays; conditions: source organism: SARS-CoV1
# [11] = source organism: Mammarenavirus choriomeningitidis
# [12] = source organism: Vaccinia virus WR
# [13] = source organism: Mammarenavirus brazilense
# [14] = source organism: Mammarenavirus juninense
# [15] = source organism: Triticum aestivum
# [16] = source organism: Zaire ebolavirus
# [17] = source organism: Yersinia pestis Antiqua
# [18] = source organism: Mycobacterium tuberculosis str. Haarlem
# [19] = source organism: SARS coronavirus Tor2
# [20] = source organism: Sudan ebolavirus
# [21] = source organism: Mammarenavirus lassaense
# [22] = source organism: Mammarenavirus whitewaterense
sequence,measurement,setting,value
ADYLSCSHF,Kd,HLA-B*45:01; [11],17.7 µM
same,Kd,HLA-B*40:01; [11],≥ 47 µM
same,Kd,HLA-B*44:03; [11],2.74 µM
same,Kd,HLA-B*40:02; [11],0.254 µM
same,Kd,HLA-B*44:02; [11],0.319 µM
same,Kd,HLA-B*18:01 [1]; [11],≥ 77.5 µM
DPGNPNCLEW,Kd,HLA-B*53:01; [12],0.00664 µM
same,Kd,HLA-B*35:01; [12],≥ 56.5 µM
same,Kd,HLA-B*51:01 [2]; [12],≥ 69.6 µM
same,Kd,HLA-B*07:02; [12],≥ 69.6 µM
same,Kd,HLA-B*54:01; [12],≥ 69.9 µM
FEEHLAPFMS,Kd,HLA-B*45:01; [13],8.78 µM
same,Kd,HLA-B*40:01; [13],2.36 µM
same,Kd,HLA-B*44:03; [13],≥ 70.1 µM
same,Kd,HLA-B*40:02; [13],2.57 µM
same,Kd,HLA-B*44:02; [13],≥ 47.4 µM
same,Kd,HLA-B*18:01 [1]; [13],3.38 µM
SEILRTLGF,Kd,HLA-B*45:01; [14],7.59 µM
same,Kd,HLA-B*40:01; [14],4.18 µM
same,Kd,HLA-B*44:03; [14],0.0373 µM
same,Kd,HLA-B*40:02; [14],0.0561 µM
same,Kd,HLA-B*44:02; [14],0.0187 µM
same,Kd,HLA-B*18:01 [1]; [14],0.115 µM
YMFESKRMK,Kd,HLA-A*03:01 [3]; source organism: Influenza A virus (A/swine/Finistere/127/99(H3N2)),0.0194 µM
VLTGGTGVG,IC50,HLA-A*11:01; source organism: Variola virus,≥ 80.6 µM
FPSQQPYL,Kd,HLA-B*53:01; [15],0.323 µM
same,Kd,HLA-B*35:01; [15],0.735 µM
same,Kd,HLA-B*51:01 [2]; [15],0.00353 µM
same,Kd,HLA-B*07:02; [15],1.03 µM
same,Kd,HLA-B*54:01; [15],4.33 µM
IPYSRVNHA,Kd,HLA-B*53:01; [12],0.177 µM
same,Kd,HLA-B*35:01; [12],0.0572 µM
same,Kd,HLA-B*51:01 [2]; [12],0.0232 µM
same,Kd,HLA-B*07:02; [12],0.00663 µM
same,Kd,HLA-B*54:01; [12],0.000133 µM
SPTEMVDVSM,Kd,HLA-B*53:01; [12],1.94 µM
same,Kd,HLA-B*35:01; [12],0.0372 µM
same,Kd,HLA-B*51:01 [2]; [12],≥ 69.6 µM
same,Kd,HLA-B*07:02; [12],0.122 µM
same,Kd,HLA-B*54:01; [12],≥ 42.7 µM
VVAFLILPQ,IC50,HLA-A*02:01; [16],≥ 1420 µM
same,IC50,HLA-A*11:01; [16],≥ 1240 µM
AMLDRILHH,Kd,HLA-A*03:01 [3]; [17],0.0095 µM
same,Kd,HLA-B*15:01; [17],6.16 µM
VMGVIGFGF,Kd,HLA-A*03:01 [4],≥ 20 µM
same,Kd,HLA-A*02:12; source organism: Choclo virus,≥ 20 µM
same,Kd,HLA-B*58:01,2.19 µM
same,Kd,HLA-B*51:01 [5],≥ 20 µM
same,Kd,HLA-A*26:01 [6],≥ 20 µM
same,Kd,HLA-B*57:01,≥ 20 µM
same,Kd,HLA-B*15:17,≥ 20 µM
same,Kd,HLA-B*27:03,≥ 20 µM
same,Kd,HLA-B*15:01; source organism: Choclo virus,≥ 20 µM
same,Kd,HLA-B*46:01,≥ 20 µM
same,Kd,HLA-B*18:01 [7],≥ 20 µM
same,Kd,HLA-B*39:01,≥ 20 µM
VLRRGALAH,Kd,HLA-A*03:01 [3]; source organism: Vibrio cholerae 2740-80,0.014 µM
EPSGNNYHIL,Kd,HLA-B*53:01; [12],2.96 µM
same,Kd,HLA-B*35:01; [12],8.08 µM
same,Kd,HLA-B*51:01 [2]; [12],≥ 69.6 µM
same,Kd,HLA-B*07:02; [12],1.67 µM
same,Kd,HLA-B*54:01; [12],15.5 µM
LLYDGSFAV,Kd,HLA-A*02:03,≤ 0.001 µM
same,Kd,HLA-A*69:01,0.0043 µM
same,Kd,HLA-A*02:11; [18],≤ 0.001 µM
same,Kd,HLA-A*02:12; [18],0.002 µM
HGEYAPFAR,IC50,HLA-A*11:01; [16],61.7 µM
IPTNFSISI,Kd,HLA-B*53:01; [19],0.0107 µM
same,Kd,HLA-B*35:01; [19],0.0312 µM
same,Kd,HLA-B*51:01 [2]; [19],0.0571 µM
same,Kd,HLA-B*07:02; [19],0.0641 µM
same,Kd,HLA-B*54:01; [19],0.0499 µM
CLRIPMTDK,Kd,HLA-A*03:01 [3]; source organism: Bacillus thuringiensis str. Al Hakam,0.0529 µM
PPLISILMIF,Kd,HLA-B*53:01; [12],0.497 µM
same,Kd,HLA-B*35:01; [12],0.761 µM
same,Kd,HLA-B*51:01 [2]; [12],2.02 µM
same,Kd,HLA-B*07:02; [12],0.27 µM
same,Kd,HLA-B*54:01; [12],3.12 µM
LPPFTQHLL,Kd,HLA-B*53:01; [12],0.0913 µM
same,Kd,HLA-B*35:01; [12],0.24 µM
same,Kd,HLA-B*51:01 [2]; [12],0.0186 µM
same,Kd,HLA-B*07:02; [12],0.401 µM
same,Kd,HLA-B*54:01; [12],3.03 µM
TPVYKLDIS,IC50,HLA-A*02:01; [16],≥ 170 µM
same,IC50,HLA-A*11:01; [16],65.8 µM
LPMIIGEPII,Kd,HLA-B*53:01; [12],0.0333 µM
same,Kd,HLA-B*35:01; [12],0.75 µM
same,Kd,HLA-B*51:01 [2]; [12],0.456 µM
same,Kd,HLA-B*07:02; [12],0.00912 µM
same,Kd,HLA-B*54:01; [12],0.0311 µM
RCYPGYTLK,Kd,HLA-A*03:01 [3]; source organism: Giardia lamblia ATCC 50803,0.0623 µM
KPFNNILNLI,Kd,HLA-B*53:01; [12],≥ 69.9 µM
same,Kd,HLA-B*35:01; [12],≥ 69.9 µM
same,Kd,HLA-B*51:01 [2]; [12],≥ 10 µM
same,Kd,HLA-B*07:02; [12],1.14 µM
same,Kd,HLA-B*54:01; [12],≥ 69.9 µM
EWAFWENKK,IC50,HLA-A*02:01; [20],≥ 183 µM
same,IC50,HLA-A*24:02 [8],15.3 µM
same,IC50,HLA-A*11:01; [20],10.8 µM
YPNSSDLDM,Kd,HLA-B*53:01; [21],0.0141 µM
same,Kd,HLA-B*35:01; [21],0.00823 µM
same,Kd,HLA-B*51:01 [2]; [21],0.78 µM
same,Kd,HLA-B*07:02; [21],0.233 µM
same,Kd,HLA-B*54:01; [21],≥ 53.9 µM
FPAQPGLTSA,Kd,HLA-B*53:01; [21],2.91 µM
same,Kd,HLA-B*35:01; [21],0.051 µM
same,Kd,HLA-B*51:01 [2]; [21],≥ 32.3 µM
same,Kd,HLA-B*07:02; [21],0.0496 µM
same,Kd,HLA-B*54:01; [21],0.00639 µM
GEWAFWETK,IC50,HLA-A*11:01; [16],58 µM
APAICHEGKA,Kd,HLA-B*53:01; [19],17.3 µM
same,Kd,HLA-B*35:01; [19],≥ 53.5 µM
same,Kd,HLA-B*51:01 [2]; [19],≥ 43 µM
same,Kd,HLA-B*07:02; [19],2.01 µM
same,Kd,HLA-B*54:01; [19],1.47 µM
PVDEYITTY,Kd,HLA-A*29:02,0.544 µM
same,Kd,HLA-A*30:02,1.48 µM
same,Kd,HLA-A*26:01 [9],10.8 µM
same,Kd,HLA-A*24:02 [10],≥ 77.6 µM
same,Kd,HLA-A*23:01,≥ 77.8 µM
same,Kd,HLA-A*01:01,0.044 µM
same,Kd,HLA-A*02:11; source organism: SARS-CoV1,≥ 20 µM
TPLHKYCVNL,Kd,HLA-B*53:01; [12],0.891 µM
same,Kd,HLA-B*35:01; [12],7.36 µM
same,Kd,HLA-B*51:01 [2]; [12],≥ 37.1 µM
same,Kd,HLA-B*07:02; [12],0.0113 µM
same,Kd,HLA-B*54:01; [12],4.86 µM
NPTNISKCF,Kd,HLA-B*53:01; [22],0.0777 µM
same,Kd,HLA-B*35:01; [22],0.199 µM
same,Kd,HLA-B*51:01 [2]; [22],5.74 µM
same,Kd,HLA-B*07:02; [22],8.66 µM
same,Kd,HLA-B*54:01; [22],3.47 µM
DPDHYKDYA,Kd,HLA-B*53:01; [12],≥ 75.5 µM
same,Kd,HLA-B*35:01; [12],≥ 77.4 µM
same,Kd,HLA-B*51:01 [2]; [12],≥ 22.5 µM
same,Kd,HLA-B*07:02; [12],14.8 µM
same,Kd,HLA-B*54:01; [12],7.01 µM
